Test: MalA biochemical activity assays, mutants versus wild-type MalA
Method: Biochemical activity assays were performed in a 100 μL volume with the following components: 18 μM MalA, 54 μM HpaC flavin reductase,^3 100 μM FAD, 50 mM NaCl, 250 μM substrate, 5 mM NADH, and brought to total volume with reaction buffer (same as storage bufferNaBr). The chlorination reactions proceeded for 20 minutes and the bromination reactions proceeded overnight. The reactions were extracted with ethyl acetate ([…], in triplicate) and dried down under nitrogen gas. The dried extract was resuspended in LC/MS grade methanol to a concentration of around 10 μM for LC/MS analysis. High resolution mass spectrometry was performed using electrospray ionization on an Agilent quadrupole time-of-flight spectrometer (Q-TOF 6500 series). Biochemical activity was monitored via the following HPLC method using acetonitrile and water: 65% acetonitrile for 5 minutes, gradient over 10 minutes to 95% acetonitrile, 95% acetonitrile for 5 minutes, gradient over 2 minutes to 65% acetonitrile, 65% acetonitrile for 11 minutes to re-equilibrate with a flow rate of 0.3 mL/minute, monitoring at 240 nm on a Phenomenex Lux cellulose-3, cellulose Tris (4-methylbenzoate) 250×4.6 mm column.

Row | Molecule | halogenase activity relative to wild-type MalA (chlorination of compound 2) | other results
1 | MalA′: flavin-dependent halogenase from M. graminicola, generated by site-directed mutagenesis of malA: L276P/R428P (protein, UniProt L0E155 1-667, looked up, variant L276P R428P) Flavin-dependent halogenase …: MAPTPKYTFTERAAAGNLSDAEILNSNNPTGSELPDESDVVVGGAGIHGLIYALHASKYKPNNLKISVIEKNTRPGYKIGESTLPIFYTWCKLHGISAAYLLRLFGLKDGLCFYFLDRENQGQYTDFCSVGAPGLVLASLQIERPMSELLFTILAQRNGVNVYHGREVDFKSTVVQGGGQGNKIAVSRGKYDSTPKTIDSALFVDATGRFRQFCSKKAPRHRFDGWNCNAFWGYFTAPKDESKIPFDLYEGDHTNHLCFPEGWVWVIRLPSWEGSPIANLMDMVTYILECADAGVPGDELPSSEELARMFGLKFQWVTSIGFAVRNDVKYPEDLSAYGTREAEQKFNYFVQKYELLQQFMSNFELIENLYGPGTTWFIRKTLAYQSPVVSGPGWLAIGDACGFTNPLYSPGINVGMSTSTWAAQLSHPIVEIGKSAPADAAESSIRKLLVPYDDYCKSLVPALEQMNRFNYVCYRDTRLGPQVACLWQFFAGIERYLSDVNIETFAHYAIKWVWGAMVPEYQQVAQKCIEHIETVPLDERLPDAMVDELLAFSNRIKSAAVAADDFSLRWDAILRSFDRSLNFVEGKTSRDIYTRQCSGCGAWLQLRPDWKKCHSCGLLGTEPQTAVTFDPPLTAEEEALLYAAWNTAPKYDPSKELKLPTPTRPAA | essentially identical to MalA | 
2 | E494Q: MalA halogenase variant, Glu494 substituted with glutamine (protein, UniProt L0E155 1-667, looked up, variant E494Q) Flavin-dependent halogenase …: MAPTPKYTFTERAAAGNLSDAEILNSNNPTGSELPDESDVVVGGAGIHGLIYALHASKYKPNNLKISVIEKNTRPGYKIGESTLPIFYTWCKLHGISAAYLLRLFGLKDGLCFYFLDRENQGQYTDFCSVGAPGLVLASLQIERPMSELLFTILAQRNGVNVYHGREVDFKSTVVQGGGQGNKIAVSRGKYDSTPKTIDSALFVDATGRFRQFCSKKAPRHRFDGWNCNAFWGYFTAPKDESKIPFDLYEGDHTNHLCFPEGWVWVIRLPSWEGSLIANLMDMVTYILECADAGVPGDELPSSEELARMFGLKFQWVTSIGFAVRNDVKYPEDLSAYGTREAEQKFNYFVQKYELLQQFMSNFELIENLYGPGTTWFIRKTLAYQSPVVSGPGWLAIGDACGFTNPLYSPGINVGMSTSTWAAQLSHRIVEIGKSAPADAAESSIRKLLVPYDDYCKSLVPALEQMNRFNYVCYRDTRLGPQVACLWQFFAGIQRYLSDVNIETFAHYAIKWVWGAMVPEYQQVAQKCIEHIETVPLDERLPDAMVDELLAFSNRIKSAAVAADDFSLRWDAILRSFDRSLNFVEGKTSRDIYTRQCSGCGAWLQLRPDWKKCHSCGLLGTEPQTAVTFDPPLTAEEEALLYAAWNTAPKYDPSKELKLPTPTRPAA | inactivated | 
3 | E494D: MalA halogenase variant, Glu494 substituted with aspartate (protein, listed as Malbranchea graminicola, Wild-type MalA' protein, MalA halogenase variant, Glu494 substituted with aspartate) MAPTPKYTFTERAAAGNLSDAEILNSNNPTGSELPDESDVVVGGAGIHGLIYALHASKYKPNNLKISVIEKNTRPGYKIGESTLPIFYTWCKLHGISAAYLLRLFGLKDGLCFYFLDRENQGQYTDFCSVGAPGLVLASLQIERPMSELLFTILAQRNGVNVYHGREVDFKSTVVQGGGQGNKIAVSRGKYDSTPKTIDSALFVDATGRFRQFCSKKAPRHRFDGWNCNAFWGYFTAPKDESKIPFDLYEGDHTNHLCFPEGWVWVIRLPSWEGSPIANLMDMVTYILECADAGVPGDELPSSEELARMFGLKFQWVTSIGFAVRNDVKYPEDLSAYGTREAEQKFNYFVQKYELLQQFMSNFELIENLYGPGTTWFIRKTLAYQSPVVSGPGWLAIGDACGFTNPLYSPGINVGMSTSTWAAQLSHPIVEIGKSAPADAAESSIRKLLVPYDDYCKSLVPALEQMNRFNYVCYRDTRLGPQVACLWQFFAGIDRYLSDVNIETFAHYAIKWVWGAMVPEYQQVAQKCIEHIETVPLDERLPDAMVDELLAFSNRIKSAAVAADDFSLRWDAILRSFDRSLNFVEGKTSRDIYTRQCSGCGAWLQLRPDWKKCHSCGLLGTEPQTAVTFDPPLTAEEEALLYAAWNTAPKYDPSKELKLPTPTRPAA | slight activity | 
4 | MalA W263A: MalA flavin-dependent halogenase variant with W263A substitution (protein, UniProt L0E155 1-667, looked up, variant W263A) Flavin-dependent halogenase …: MAPTPKYTFTERAAAGNLSDAEILNSNNPTGSELPDESDVVVGGAGIHGLIYALHASKYKPNNLKISVIEKNTRPGYKIGESTLPIFYTWCKLHGISAAYLLRLFGLKDGLCFYFLDRENQGQYTDFCSVGAPGLVLASLQIERPMSELLFTILAQRNGVNVYHGREVDFKSTVVQGGGQGNKIAVSRGKYDSTPKTIDSALFVDATGRFRQFCSKKAPRHRFDGWNCNAFWGYFTAPKDESKIPFDLYEGDHTNHLCFPEGAVWVIRLPSWEGSLIANLMDMVTYILECADAGVPGDELPSSEELARMFGLKFQWVTSIGFAVRNDVKYPEDLSAYGTREAEQKFNYFVQKYELLQQFMSNFELIENLYGPGTTWFIRKTLAYQSPVVSGPGWLAIGDACGFTNPLYSPGINVGMSTSTWAAQLSHRIVEIGKSAPADAAESSIRKLLVPYDDYCKSLVPALEQMNRFNYVCYRDTRLGPQVACLWQFFAGIERYLSDVNIETFAHYAIKWVWGAMVPEYQQVAQKCIEHIETVPLDERLPDAMVDELLAFSNRIKSAAVAADDFSLRWDAILRSFDRSLNFVEGKTSRDIYTRQCSGCGAWLQLRPDWKKCHSCGLLGTEPQTAVTFDPPLTAEEEALLYAAWNTAPKYDPSKELKLPTPTRPAA |  | production of compound 1 relative to wild-type MalA (chlorination of compound 2): 5%; production of compound 3 relative to wild-type MalA (chlorination of compound 2): 50%; production of compound 4 relative to wild-type MalA (chlorination of compound 2): 60%
5 | E494A: MalA halogenase variant, Glu494 substituted with alanine (protein, UniProt L0E155 1-667, looked up, variant E494A) Flavin-dependent halogenase …: MAPTPKYTFTERAAAGNLSDAEILNSNNPTGSELPDESDVVVGGAGIHGLIYALHASKYKPNNLKISVIEKNTRPGYKIGESTLPIFYTWCKLHGISAAYLLRLFGLKDGLCFYFLDRENQGQYTDFCSVGAPGLVLASLQIERPMSELLFTILAQRNGVNVYHGREVDFKSTVVQGGGQGNKIAVSRGKYDSTPKTIDSALFVDATGRFRQFCSKKAPRHRFDGWNCNAFWGYFTAPKDESKIPFDLYEGDHTNHLCFPEGWVWVIRLPSWEGSLIANLMDMVTYILECADAGVPGDELPSSEELARMFGLKFQWVTSIGFAVRNDVKYPEDLSAYGTREAEQKFNYFVQKYELLQQFMSNFELIENLYGPGTTWFIRKTLAYQSPVVSGPGWLAIGDACGFTNPLYSPGINVGMSTSTWAAQLSHRIVEIGKSAPADAAESSIRKLLVPYDDYCKSLVPALEQMNRFNYVCYRDTRLGPQVACLWQFFAGIARYLSDVNIETFAHYAIKWVWGAMVPEYQQVAQKCIEHIETVPLDERLPDAMVDELLAFSNRIKSAAVAADDFSLRWDAILRSFDRSLNFVEGKTSRDIYTRQCSGCGAWLQLRPDWKKCHSCGLLGTEPQTAVTFDPPLTAEEEALLYAAWNTAPKYDPSKELKLPTPTRPAA | inactivated | 
6 | MalA W265A: MalA flavin-dependent halogenase variant with W265A substitution (protein, UniProt L0E155 1-667, looked up, variant W265A) Flavin-dependent halogenase …: MAPTPKYTFTERAAAGNLSDAEILNSNNPTGSELPDESDVVVGGAGIHGLIYALHASKYKPNNLKISVIEKNTRPGYKIGESTLPIFYTWCKLHGISAAYLLRLFGLKDGLCFYFLDRENQGQYTDFCSVGAPGLVLASLQIERPMSELLFTILAQRNGVNVYHGREVDFKSTVVQGGGQGNKIAVSRGKYDSTPKTIDSALFVDATGRFRQFCSKKAPRHRFDGWNCNAFWGYFTAPKDESKIPFDLYEGDHTNHLCFPEGWVAVIRLPSWEGSLIANLMDMVTYILECADAGVPGDELPSSEELARMFGLKFQWVTSIGFAVRNDVKYPEDLSAYGTREAEQKFNYFVQKYELLQQFMSNFELIENLYGPGTTWFIRKTLAYQSPVVSGPGWLAIGDACGFTNPLYSPGINVGMSTSTWAAQLSHRIVEIGKSAPADAAESSIRKLLVPYDDYCKSLVPALEQMNRFNYVCYRDTRLGPQVACLWQFFAGIERYLSDVNIETFAHYAIKWVWGAMVPEYQQVAQKCIEHIETVPLDERLPDAMVDELLAFSNRIKSAAVAADDFSLRWDAILRSFDRSLNFVEGKTSRDIYTRQCSGCGAWLQLRPDWKKCHSCGLLGTEPQTAVTFDPPLTAEEEALLYAAWNTAPKYDPSKELKLPTPTRPAA | drastic decrease in activity | 
7 | MalA H253A: MalA halogenase variant, His253 substituted with alanine (protein, UniProt L0E155 1-667, looked up, variant H253A) Flavin-dependent halogenase …: MAPTPKYTFTERAAAGNLSDAEILNSNNPTGSELPDESDVVVGGAGIHGLIYALHASKYKPNNLKISVIEKNTRPGYKIGESTLPIFYTWCKLHGISAAYLLRLFGLKDGLCFYFLDRENQGQYTDFCSVGAPGLVLASLQIERPMSELLFTILAQRNGVNVYHGREVDFKSTVVQGGGQGNKIAVSRGKYDSTPKTIDSALFVDATGRFRQFCSKKAPRHRFDGWNCNAFWGYFTAPKDESKIPFDLYEGDATNHLCFPEGWVWVIRLPSWEGSLIANLMDMVTYILECADAGVPGDELPSSEELARMFGLKFQWVTSIGFAVRNDVKYPEDLSAYGTREAEQKFNYFVQKYELLQQFMSNFELIENLYGPGTTWFIRKTLAYQSPVVSGPGWLAIGDACGFTNPLYSPGINVGMSTSTWAAQLSHRIVEIGKSAPADAAESSIRKLLVPYDDYCKSLVPALEQMNRFNYVCYRDTRLGPQVACLWQFFAGIERYLSDVNIETFAHYAIKWVWGAMVPEYQQVAQKCIEHIETVPLDERLPDAMVDELLAFSNRIKSAAVAADDFSLRWDAILRSFDRSLNFVEGKTSRDIYTRQCSGCGAWLQLRPDWKKCHSCGLLGTEPQTAVTFDPPLTAEEEALLYAAWNTAPKYDPSKELKLPTPTRPAA |  | site-selectivity profile of bromination (bromination of compound 2): same product profile as the wild-type MalA; site-selectivity of chlorination (chlorination of compound 2, C8 versus C9): selective for producing the C9-chlorinated compound 3

Reference: patent US12252714B2, “Halogenation of complex organic compounds” (REGENTS OF THE UNIVERSITY OF MICHIGAN, priority 2018, dated 2025)
